Target: T1, myc-tagged PSD95 (UniProt P31016 1-724)
T1 construct: also called PSD-95 myc; PSD-95-myc; not shown: myc tag
Assay: co-immunoprecipitation from HEK 293T cells stably expressing Flag-tagged GPR10, transfected with myc-tagged PSD95
Experimental: Forty-eight hours after transfection, cells were washed once in PBS and lysed with IP buffer (1% triton X-100, 25 mM Tris, pH 7.4, 50 mM NaCl, 5 mM EDTA, 5 mM EGTA, 0.1 mM phenylmethylsulphonyl fluoride (PMSF), aprotinin, leupeptin, and bacitracin). Immunoprecipitation was performed using 2 μg anti-Flag M2 antibody (Sigma) or 1 μg anti-myc antibody (Roche) followed by 25 μl protein G-agarose (Sigma). Immunoprecipitation was carried out overnight at 4° C. Immunoprecipitated proteins were resolved on SDS-PAGE, transferred to PVDF membrane. Western blotting was performed to detect GRIP using anti-GRIP antibody (1:1000). ABP-myc, PSD-95-myc, and PICK1-myc were detected using the monoclonal anti-myc antibody (1:500, Clontech).
To determine whether GPR10 interacts specifically with AMPA receptor interacting proteins, myc-tagged ABP and myc-tagged PSD95 were transfected into cell lines expressing wild type and mutant Flag-tagged GPR10.

T1 sequence (P31016 whole entry): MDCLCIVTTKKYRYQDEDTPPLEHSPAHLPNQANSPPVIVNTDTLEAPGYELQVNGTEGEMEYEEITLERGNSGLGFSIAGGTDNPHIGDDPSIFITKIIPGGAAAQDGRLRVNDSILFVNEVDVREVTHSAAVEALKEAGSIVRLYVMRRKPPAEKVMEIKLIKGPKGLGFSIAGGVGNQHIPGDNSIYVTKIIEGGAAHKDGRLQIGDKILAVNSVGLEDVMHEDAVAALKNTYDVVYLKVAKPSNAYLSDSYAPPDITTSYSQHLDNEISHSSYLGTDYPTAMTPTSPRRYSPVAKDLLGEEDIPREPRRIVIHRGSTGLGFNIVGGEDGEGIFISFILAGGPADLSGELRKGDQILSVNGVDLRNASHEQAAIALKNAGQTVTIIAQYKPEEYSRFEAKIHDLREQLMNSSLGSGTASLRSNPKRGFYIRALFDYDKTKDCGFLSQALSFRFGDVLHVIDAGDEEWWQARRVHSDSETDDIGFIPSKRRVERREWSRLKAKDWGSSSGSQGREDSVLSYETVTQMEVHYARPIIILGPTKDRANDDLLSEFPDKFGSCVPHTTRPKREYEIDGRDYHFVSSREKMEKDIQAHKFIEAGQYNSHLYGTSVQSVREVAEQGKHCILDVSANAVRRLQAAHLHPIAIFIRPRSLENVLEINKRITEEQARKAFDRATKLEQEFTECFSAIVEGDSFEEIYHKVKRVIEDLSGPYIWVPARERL

- binding result: no binding
B1: Flag-tagged GPR10 (wild type) (receptor, UniProt P49683 1-370, looked up)
chain: MASSTTRGPRVSDLFSGLPPAVTTPANQSAEASAGNGSVAGADAPAVTPFQSLQLVHQLKGLIVLLYSVVVVVGLVGNCLLVLVIARVRRLHNVTNFLIGNLALSDVLMCTACVPLTLAYAFEPRGWVFGGGLCHLVFFLQPVTVYVSVFTLTTIAVDRYVVLVHPLRRRISLRLSAYAVLAIWALSAVLALPAAVHTYHVELKPHDVRLCEEFWGSQERQRQLYAWGLLLVTYLLPLLVILLSYVRVSVKLRNRVVPGCVTQSQADWDRARRRRTFCLLVVIVVVFAVCWLPLHVFNLLRDLDPHAIDPYAFGLVQLLCHWLAMSSACYNPFIYAWLHDSFREELRKLLVAWPRKIAPHGQNMTVSVVI
notes: whole, on cells; Expressed in HEK 293T or COS7 cells; immunoprecipitated from Triton lysates with anti-Flag M2; also called Flag GPR10 WT; PrRP receptor; not shown: Flag tag

From patent US20020037533A1 (University of California, published 2002)
